Data reported in patent US20160016995A1.

Legend:
[1] = system: GFP-pdt#5H (Example 1) [GFP: P42212]
[2] = system: GFP-pdt#9 [GFP: P42212]
[3] = system: GFP-pdt#5A (Example 1) [GFP: P42212]
[4] = system: GFP-pdt#5B (Example 1) [GFP: P42212]
[5] = system: GFP-pdt (GFP with C-terminal wild-type M. florum ssrA tag) [GFP: P42212]
[6] = system: GFP-pdt#6 (Example 1) [GFP: P42212]
[7] = system: GFP-pdt#13 [GFP: P42212]
[8] = system: GFP-pdt#5F [GFP: P42212]
[9] = system: GFP-pdt#5G [GFP: P42212]
[10] = system: GFP-pdt#5C [GFP: P42212]
[11] = system: GFP-pdt#S2 [GFP: P42212]
[12] = system: GFP-pdt#2 (Example 1) [GFP: P42212]
[13] = system: GFP-pdt#12 [GFP: P42212]
[14] = system: GFP-pdt#S3 [GFP: P42212]
[15] = system: GFP-pdt#5 (Example 1) [GFP: P42212]
[16] = system: untagged GFP (GFPmut3b) [GFP: P42212]
[17] = system: GFP-pdt#11 [GFP: P42212]
[18] = system: GFP-pdt#10 [GFP: P42212]
[19] = system: GFP-pdt#7 [GFP: P42212]
[20] = system: GFP-pdt#4 (Example 1) [GFP: P42212]
[21] = system: GFP-pdt#5D [GFP: P42212]
[22] = system: GFP-pdt#S1 [GFP: P42212]
[23] = system: GFP-pdt#5E [GFP: P42212]
[24] = system: GFP-pdt#3 (Example 1) [GFP: P42212]
[25] = system: GFP-pdt#1 [GFP: P42212]
[26] = system: GFP-pdt#8 [GFP: P42212]

**Q.** Which Fold Degradation (0 vs 50 ng/ml aTc) [1] does the source give for Mesoplasma florum Lon protease (mf-Lon) here?
**A.** The Fold Degradation (0 vs 50 ng/ml aTc) was 3.6 fold.

**Q.** What about the Fold Degradation (0 vs 50 ng/ml aTc) [2] of the same substance?
**A.** Its Fold Degradation (0 vs 50 ng/ml aTc) is 17 fold.

**Q.** And the Fold Degradation (0 vs 50 ng/ml aTc) [3]?
**A.** The Fold Degradation (0 vs 50 ng/ml aTc) was 5.4 fold.

**Q.** What about the Fold Degradation (0 vs 50 ng/ml aTc) [4] of the same substance?
**A.** The Fold Degradation (0 vs 50 ng/ml aTc) was 2.6 fold.

**Q.** What about the Fold Degradation (0 vs 50 ng/ml aTc) [5] of the same substance?
**A.** The Fold Degradation (0 vs 50 ng/ml aTc) was 20.7 fold.

**Q.** What about the “GFP level after mf-Lon expression (Example 2)” value [5] of the same substance?
**A.** The value was “reduced to 3% of its initial levels”.

**Q.** And the Fold Degradation (0 vs 50 ng/ml aTc) [6]?
**A.** The Fold Degradation (0 vs 50 ng/ml aTc) was 55.4 fold.

**Q.** And the Fold Degradation (0 vs 50 ng/ml aTc) [7]?
**A.** Its Fold Degradation (0 vs 50 ng/ml aTc) is 18.6 fold.

**Q.** What about the Fold Degradation (0 vs 50 ng/ml aTc) [8] of the same substance?
**A.** Its Fold Degradation (0 vs 50 ng/ml aTc) is 4 fold.

**Q.** And the Fold Degradation (0 vs 50 ng/ml aTc) [9]?
**A.** Its Fold Degradation (0 vs 50 ng/ml aTc) is 4.2 fold.

**Q.** And the Fold Degradation (0 vs 50 ng/ml aTc) [10]?
**A.** Its Fold Degradation (0 vs 50 ng/ml aTc) is 1.6 fold.

**Q.** What about the Fold Degradation (0 vs 50 ng/ml aTc) [11] of the same substance?
**A.** The Fold Degradation (0 vs 50 ng/ml aTc) was 44.9 fold.

**Q.** And the Fold Degradation (0 vs 50 ng/ml aTc) [12]?
**A.** Its Fold Degradation (0 vs 50 ng/ml aTc) is 51.8 fold.

**Q.** What about the Fold Degradation (0 vs 50 ng/ml aTc) [13] of the same substance?
**A.** The Fold Degradation (0 vs 50 ng/ml aTc) was 31.6 fold.

**Q.** And the Fold Degradation (0 vs 50 ng/ml aTc) [14]?
**A.** The Fold Degradation (0 vs 50 ng/ml aTc) was 38.7 fold.

**Q.** And the Fold Degradation (0 vs 50 ng/ml aTc) [15]?
**A.** The Fold Degradation (0 vs 50 ng/ml aTc) was 48.7 fold.

**Q.** And the Fold Degradation (0 vs 50 ng/ml aTc) [16]?
**A.** Its Fold Degradation (0 vs 50 ng/ml aTc) is 1.2 fold.

**Q.** What about the Fold Degradation (0 vs 50 ng/ml aTc) [17] of the same substance?
**A.** The Fold Degradation (0 vs 50 ng/ml aTc) was 17.7 fold.

**Q.** What about the Fold Degradation (0 vs 50 ng/ml aTc) [18] of the same substance?
**A.** The Fold Degradation (0 vs 50 ng/ml aTc) was 41.5 fold.

**Q.** What about the Fold Degradation (0 vs 50 ng/ml aTc) [19] of the same substance?
**A.** Its Fold Degradation (0 vs 50 ng/ml aTc) is 31.7 fold.

**Q.** What about the Fold Degradation (0 vs 50 ng/ml aTc) [20] of the same substance?
**A.** The Fold Degradation (0 vs 50 ng/ml aTc) was 51 fold.

**Q.** What about the Fold Degradation (0 vs 50 ng/ml aTc) [21] of the same substance?
**A.** The Fold Degradation (0 vs 50 ng/ml aTc) was 12 fold.

**Q.** And the Fold Degradation (0 vs 50 ng/ml aTc) [22]?
**A.** The Fold Degradation (0 vs 50 ng/ml aTc) was 39.4 fold.

**Q.** And the Fold Degradation (0 vs 50 ng/ml aTc) [23]?
**A.** Its Fold Degradation (0 vs 50 ng/ml aTc) is 7.2 fold.

**Q.** And the Fold Degradation (0 vs 50 ng/ml aTc) [24]?
**A.** The Fold Degradation (0 vs 50 ng/ml aTc) was 61.8 fold.

**Q.** And the Fold Degradation (0 vs 50 ng/ml aTc) [25]?
**A.** Its Fold Degradation (0 vs 50 ng/ml aTc) is 24.6 fold.

**Q.** What about the Fold Degradation (0 vs 50 ng/ml aTc) [26] of the same substance?
**A.** The Fold Degradation (0 vs 50 ng/ml aTc) was 48.4 fold.

**Q.** How did the “GFP-pdt#3 (Example 2 name) degradation across ATc levels” value [15] turn out when “mf-Lon fused to the E. coli ssrA tag variant ec-AAV” was run?
**A.** Its value is “resulting in reduced GFP-pdt#3 degradation throughout the range of ATc levels tested”.
